Here are results for 15 substances from patent US20240132578A1.

Common to all, as to assay: cell-based or functional assay
The target in assay [1] is HIV-1 Env of isolate IAVI-C18 (Clade C) (HIV-1).
In assay [2] the target is HIV-1 Env of isolate 93UG077 (Clade A) (HIV-1).
Assay [3] concerns the target HIV-1 Env of isolate 92UG024 (Clade D) (HIV-1).
Assay [4] deals with HIV-1 Env of isolate APV-6 (Clade B) (HIV-1).
Assay [5] deals with HIV-1 JR-CSF envelope protein (Env) on pseudotyped virus (HIV-1 isolate JR-CSF) (UniProt P20871).
For assay [6], the target named is HIV-1 NL43 envelope protein (Env) on pseudotyped virus (HIV-1 strain NL43).
The target in assay [7] is HIV-1 92TH021 envelope protein (Env) on pseudotyped virus (HIV-1 strain 92TH021).
Assay [8] has as its target HIV-1 IAVI_C22 envelope protein (Env) on pseudotyped virus (HIV-1 strain IAVI C22).
Assay [9] has as its target HIV-1 93IN905 envelope protein (Env) on pseudotyped virus (HIV-1 strain 93IN905).
In assay [10] the target is HIV-1 MGRM-C-027 envelope glycoprotein (Env) on pseudovirus (HIV-1).
The target of assay [11] is HIV-1 93IN905 envelope glycoprotein (Env) on pseudovirus (HIV-1).
Assay [12] addresses HIV-1 APV17 envelope glycoprotein (Env) on pseudovirus (HIV-1).
The target of assay [13] is HIV-1 93UG077 envelope glycoprotein (Env) on pseudovirus (HIV-1).
The target in assay [14] is HIV-1 MGRM-AG-005 envelope glycoprotein (Env) on pseudovirus (HIV-1).
Assay [15] concerns the target aMLV envelope protein on pseudovirus (negative control virus).
Assay [16] addresses HIV-1 JRCSF envelope glycoprotein (Env) on pseudovirus (HIV-1) (UniProt P20871).
In assay [17] the target is HIV-1 MGRM-C-026 envelope glycoprotein (Env) on pseudovirus (HIV-1).
Assay [18] addresses HIV-1 APV6 envelope glycoprotein (Env) on pseudovirus (HIV-1).
Assay [19] deals with HIV-1 APV13 envelope glycoprotein (Env) on pseudovirus (HIV-1).
Assay [20] deals with HIV-1 MGRM-C-028 envelope glycoprotein (Env) on pseudovirus (HIV-1).
For assay [21], the target named is HIV-1 MGRM-D-018 envelope glycoprotein (Env) on pseudovirus (HIV-1).
For assay [22], the target named is HIV-1 JR-CSF Env N262A (HIV-1 (isolate JR-CSF)) (UniProt P20871).
The target of assay [23] is HIV-1 JR-CSF Env K305A (HIV-1 (isolate JR-CSF, clade B)) (UniProt P20871).
In assay [24] the target is HIV-1 envelope glycoprotein (Env) of isolate 94UG103 (HIV-1).
Assay [25] addresses HIV-1 envelope glycoprotein (Env) of isolate MG RM-A-002, subtype A (HIV-1).
The target of assay [26] is HIV-1 MGRM-AG-005 Env (HIV-1).
The target of assay [27] is HIV-1 JRFL Env (HIV-1).
In assay [28] the target is HIV-1 envelope glycoprotein (Env) of isolate 92WR026, subtype A (HIV-1).
The target of assay [29] is HIV-1 envelope glycoprotein (Env) of isolate 92BR020, on pseudovirus (HIV-1).
In assay [30] the target is HIV-1 envelope glycoprotein (Env) of isolate MGRM-Chronic-B-010, on pseudovirus (HIV-1).
In assay [31] the target is HIV-1 JR-CSF Env D325A (HIV-1 isolate JR-CSF) (UniProt P20871).
Assay [32] concerns the target HIV-1 JR-CSF Env F317A (HIV-1 (isolate JR-CSF, clade B)) (UniProt P20871).
Assay [33] concerns the target HIV-1 JR-CSF Env N295A (HIV-1 (isolate JR-CSF, clade B)) (UniProt P20871).
The target in assay [34] is HIV-1 JR-CSF Env I309A (HIV-1 (isolate JR-CSF, clade B)) (UniProt P20871).

Usually IC50 stands for the concentration that gives 50% inhibition. A lower IC50 goes with greater potency.

As for 2G12 (antibody), the IC90 (neutralization of pseudovirus) in [1] is above 50 µg/mL; in assay [2], above 50 µg/mL; in [3], 7.57 µg/mL.

Take b12 (antibody): the IC90 (neutralization of pseudovirus) in [1], in assay [2], in [4] and in assay [3] was above 50 µg/mL each time.

Take 1495_C14 (PGC14) (antibody): the IC50, Neutralizing Antibody Assay, Virus/Ab Incubation 1 hour in assay [5] was above 50 µg/mL; in assay [6] it was 0.35 µg/mL; in assay [7], above 50 µg/mL; in [8], above 50 µg/mL; in assay [9], above 50 µg/mL. For the same substance, the IC50, Neutralizing Antibody Assay, Virus/Ab Incubation 18 hour in [5] was above 50 µg/mL; in assay [6], 0.15 µg/mL; in assay [7] it was above 50 µg/mL; in [8] it was 13.4 µg/mL; in assay [9], 0.146 µg/mL.

As to PGT-142 (4995_E20) (antibody), the IC50, pseudovirus neutralization in assay [10] is 0.272 µg/mL; in assay [11] it was 0.0017 µg/mL; in [12], 0.393 µg/mL; in assay [13] it was above 10 µg/mL; in assay [14], 0.22 µg/mL; in assay [15], above 10 µg/mL. Further, the IC50, pseudovirus neutralization in [16] was 0.0085 µg/mL; in assay [17], above 10 µg/mL; in assay [18] it was 5.42 µg/mL; in assay [19] it was above 10 µg/mL; in [20], 1.23 µg/mL; in assay [21], above 10 µg/mL.

Turning to 4E10 (antibody), the IC90 (neutralization of pseudovirus) in assay [1] was above 50 µg/mL; in assay [2], above 50 µg/mL; in assay [3], 23.7 µg/mL.

On to 1443_C16 (PG16) (TCN-116) (antibody), for which the IC50, Neutralizing Antibody Assay, Virus/Ab Incubation 1 hour is below 0.0025 µg/mL in [5]; below 0.0025 µg/mL in [6]; 0.136 µg/mL in assay [7]; 0.114 µg/mL in [8]; 0.33 µg/mL in assay [9]. Also, the IC50, Neutralizing Antibody Assay, Virus/Ab Incubation 18 hour is below 0.0025 µg/mL in assay [5]; 4.99 µg/mL in assay [6]; 0.0435 µg/mL in assay [7]; 0.106 µg/mL in [8]; 0.255 µg/mL in [9]. Also, the IC90 (neutralization of pseudovirus) in [1] is 0.207 µg/mL; in assay [2], above 50 µg/mL; in assay [4], 44.3 µg/mL; in assay [3] it was above 50 µg/mL.

Regarding PGT-143 (4980_N08) (antibody), the IC50, pseudovirus neutralization in assay [10] is 0.505 µg/mL; in assay [11] it was 0.0021 µg/mL; in assay [12], 0.618 µg/mL; in assay [13], above 10 µg/mL; in assay [14], 0.244 µg/mL; in assay [15], above 10 µg/mL. Also, the IC50, pseudovirus neutralization in [16] is 0.0064 µg/mL; in assay [17], above 10 µg/mL; in assay [18], 4.43 µg/mL; in [19], above 10 µg/mL; in [20] it was 1.82 µg/mL; in assay [21], above 10 µg/mL.

On to 5114_A19 (PGT-128) (antibody), for which the Fold IC50 increase relative to wild-type worked out at 1.6 fold in assay [22] and 1.8 fold in assay [23].

PGV04 (antibody): the IC50 in assay [24] came to 0.202 µg/mL.

With 4877_D15 (PGT-122) (antibody), the IC50, pseudovirus neutralization in [25] was 0.017 µg/mL; in [26], above 10 µg/mL; in assay [27] it was 0.0471 µg/mL; in assay [28] it was 0.036 µg/mL; in [29] it was 0.021 µg/mL; in assay [30] it was 0.018 µg/mL.

As to 2F5 (antibody), the results for the IC90 (neutralization of pseudovirus) in assay [2] and in assay [3] were 33.4 µg/mL and 34.4 µg/mL, respectively.

As to 5147_N06 (PGT-130) (antibody), the Fold IC50 increase relative to wild-type in assay [22] is 0.7 fold; in assay [23], 6.9 fold; in assay [31] it was above 1000 fold; in assay [32] it was 17 fold; in [33], 0.7 fold; in assay [34] it was above 77.9 fold. Moreover, the IC50, pseudovirus neutralization stood at 0.947 µg/mL in assay [26] and 0.0346 µg/mL in [27].

On to PGT-141 (4964_G22; 4993_K13) (antibody), for which the IC50, pseudovirus neutralization in [10] is 0.822 µg/mL; in assay [11], 0.0016 µg/mL; in [12], 0.616 µg/mL; in [13] it was above 10 µg/mL; in assay [14] it was 0.392 µg/mL; in [15] it was above 10 µg/mL. In addition, the IC50, pseudovirus neutralization in assay [16] was 0.0047 µg/mL; in assay [17], above 10 µg/mL; in [18], 5.08 µg/mL; in assay [19], above 10 µg/mL; in assay [20] it was 2.35 µg/mL; in [21], above 10 µg/mL.

Consider PGT-144 (4970_K22) (antibody), for which the IC50, pseudovirus neutralization in assay [10] was above 10 µg/mL; in [11], 0.158 µg/mL; in assay [12] it was 5.12 µg/mL; in assay [13], above 10 µg/mL; in [14], above 10 µg/mL; in assay [15] it was above 10 µg/mL. Moreover, the IC50, pseudovirus neutralization in assay [16] is 0.128 µg/mL; in assay [17], above 10 µg/mL; in [18] it was above 10 µg/mL; in assay [19], above 10 µg/mL; in assay [20], above 10 µg/mL; in assay [21], above 10 µg/mL.

As for 1496_C09 (PG9) (TCN-109) (antibody), the IC50, Neutralizing Antibody Assay, Virus/Ab Incubation 1 hour in [5] is below 0.0025 µg/mL; in assay [6], 0.294 µg/mL; in [7], 0.0612 µg/mL; in assay [8] it was 24.9 µg/mL; in assay [9] it was 0.144 µg/mL. The IC50, Neutralizing Antibody Assay, Virus/Ab Incubation 18 hour in assay [5] was below 0.0025 µg/mL; in assay [6], 38 µg/mL; in [7], 0.0571 µg/mL; in [8], 2.11 µg/mL; in [9], 0.0619 µg/mL. The IC90 (neutralization of pseudovirus) in [1] was determined as 0.866 µg/mL; in assay [4], 1.96 µg/mL. In addition, in assay [24], the IC50 was 0.34 µg/mL.
